This assay concerns the target enzymatically deglycosylated clinical-grade rshACE2 (human) (UniProt Q9BYF1). Description: BLI. For orientation: Biolayer interferometry detects binding as a change in optical thickness at a sensor tip.
UniProt Q9BYF1, sequence (Q9BYF1 18-740 limits assumed): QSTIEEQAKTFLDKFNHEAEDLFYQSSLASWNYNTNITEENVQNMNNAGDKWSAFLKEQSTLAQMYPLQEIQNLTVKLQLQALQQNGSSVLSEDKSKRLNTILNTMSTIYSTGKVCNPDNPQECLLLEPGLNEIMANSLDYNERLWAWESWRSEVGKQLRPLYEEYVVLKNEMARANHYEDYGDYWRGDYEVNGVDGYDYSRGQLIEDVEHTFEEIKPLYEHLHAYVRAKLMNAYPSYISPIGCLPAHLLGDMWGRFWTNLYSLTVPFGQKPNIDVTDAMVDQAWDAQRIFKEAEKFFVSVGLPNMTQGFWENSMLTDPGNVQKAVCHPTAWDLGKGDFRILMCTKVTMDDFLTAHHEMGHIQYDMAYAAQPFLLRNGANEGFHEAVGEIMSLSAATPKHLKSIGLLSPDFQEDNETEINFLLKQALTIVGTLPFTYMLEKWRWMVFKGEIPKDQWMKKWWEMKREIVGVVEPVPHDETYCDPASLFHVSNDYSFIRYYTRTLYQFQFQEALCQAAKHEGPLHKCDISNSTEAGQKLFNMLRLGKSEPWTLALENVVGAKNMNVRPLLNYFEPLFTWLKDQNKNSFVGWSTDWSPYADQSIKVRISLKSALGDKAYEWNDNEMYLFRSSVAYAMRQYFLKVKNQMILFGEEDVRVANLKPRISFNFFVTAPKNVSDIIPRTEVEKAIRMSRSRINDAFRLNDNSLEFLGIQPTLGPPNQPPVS

Regarding “SARS-CoV-2 Spike receptor binding domain (residues R319-F541) (from UniProt P0DTC2 319-541) (domain or fragment)”, the Kd (in general, the concentration at which binding is half-saturated) came to 5.1 nM. This lies in the single-digit nanomolar range.

(Values after paper PMC8730730.)
